Assay results from US20170246255.

Columns and labels:
[1] = tested on: T1, model thrombin substrate peptide WALAPRSFA
T1 sequence: WALAPRSFA

[2] = tested on: T2, model peptide analog WALAPRXFA (X = tertiary leucine)
T2 sequence: WALAPRXFA

thrombin
cleavage of the peptide by the enzyme, C18 reverse phase HPLC and mass spectra after 4 hours at 23° C. with 10 nM thrombin [1]: unmodified peptide was efficiently cleaved by thrombin to yield the cleavage product WALAPR | cleavage of the peptide by the enzyme, C18 reverse phase HPLC and mass spectra after 4 hours at 23° C. with 10 nM thrombin [2]: the TLE substituted peptide analog was not cleaved by thrombin under these conditions
